Assay [1] has as its target T1, mouse CD20 (mouse, UniProt P19437 1-291).
T1 construct: whole, on cells; also called mCD20; CHO-K1-mCD20
T1 sequence (looked up): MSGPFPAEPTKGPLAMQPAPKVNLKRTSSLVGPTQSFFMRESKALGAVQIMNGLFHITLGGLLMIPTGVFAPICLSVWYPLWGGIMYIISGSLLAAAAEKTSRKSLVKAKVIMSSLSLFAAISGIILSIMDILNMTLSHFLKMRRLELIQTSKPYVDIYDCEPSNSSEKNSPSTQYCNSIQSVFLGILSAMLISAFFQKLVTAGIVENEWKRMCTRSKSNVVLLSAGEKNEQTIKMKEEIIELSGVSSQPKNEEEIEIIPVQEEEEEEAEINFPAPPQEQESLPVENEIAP
The assay is described as follows: FACS, 5 ug/ml VHH on CHO-K1 cells stably expressing mouse CD20, FITC anti-his detection. How it is done: (§1) To determine the binding activities of the VHHs specific for human or mouse CD20, FACS analysis was carried out. Specifically, CHO-K1 cells and CHO-K1 cells stably expressing human or mouse CD20 were incubated with 5 μg/ml of the VHHs produced in accordance with the application. A monoclonal FITC labelled anti-his antibody (Genscript #A01620) was applied as secondary stain. FACS analysis was done on a FacsCalibur flow cytometer (Becton Dickinson).
On the technique in general: A flow cytometer gives signals particle by particle.

The target of assay [2] is T2, human CD20 (human, UniProt P11836 1-297).
T2 construct: The forward primer starts at codon 2; also called hCD20; CHO-K1-hCD20
T2 sequence: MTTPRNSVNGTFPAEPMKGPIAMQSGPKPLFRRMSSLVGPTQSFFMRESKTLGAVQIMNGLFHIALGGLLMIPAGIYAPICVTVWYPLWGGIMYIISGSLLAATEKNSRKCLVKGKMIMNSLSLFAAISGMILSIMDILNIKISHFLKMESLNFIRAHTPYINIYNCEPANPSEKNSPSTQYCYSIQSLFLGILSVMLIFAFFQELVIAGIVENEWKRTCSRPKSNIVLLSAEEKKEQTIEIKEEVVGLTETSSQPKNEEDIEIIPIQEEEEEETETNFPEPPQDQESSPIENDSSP
The assay is described as follows: FACS, 5 ug/ml VHH on CHO-K1 cells stably expressing human CD20, FITC anti-his detection. How it is done:
as §1

Positions count from the first letter of the chain named.

B1: R3MCD137 (VHH)
VHH: QVQLQESGGGSVQAGGSLRLSCAASGSTFSIKAMGWYRQAPGKQRELVAAFISGRGSTKYADSVKGRFAISRDNAKNTMYLQMDSLEPEDTAVYYCYIVLPTGGGSAMDYWGEGTQVTVSS
notes: Whole entry = VHH-AAA-HA-His6 (pMECS construct)
With B1, the binding result in assay [1] was “binds”.

B2: R3MCD22 (VHH)
VHH: B1 VHH with S11V, E46D, A50G, T58A, E87K, P101T, E113Q
notes: as for B1
Regarding B2, the binding result in assay [1] is “binds”.

B3: 2HCD78 (VHH)
VHH: QVQLQESGGGLVQPGGSLRLSCAASGRTFSMGWFRQAPGKEREFVAAITYSGGSPYYASSVRGRFTISRDNAKNTVYLQMNSLKPEDTAVYYCAANPTYGSDWNAENWGQGTQVTVSS
notes: as for B1
Regarding B3, the binding result in assay [2] is given as “binds”.

(Values after patent US20190092871A1 (VIB VZW, published 2019).)
